From patent publication US20140271603A1
One block for each substance: values may come before it.

Molecular target: C3 convertase of the alternative pathway (C3bBb) formed on C3b-coated wells (UniProt P01024)
Assay: cell-based or functional assay

Sequence of C3 convertase of the alternative pathway (C3bBb) formed on C3b-coated wells (P01024 749-1663 limits assumed, chain 1 of 3): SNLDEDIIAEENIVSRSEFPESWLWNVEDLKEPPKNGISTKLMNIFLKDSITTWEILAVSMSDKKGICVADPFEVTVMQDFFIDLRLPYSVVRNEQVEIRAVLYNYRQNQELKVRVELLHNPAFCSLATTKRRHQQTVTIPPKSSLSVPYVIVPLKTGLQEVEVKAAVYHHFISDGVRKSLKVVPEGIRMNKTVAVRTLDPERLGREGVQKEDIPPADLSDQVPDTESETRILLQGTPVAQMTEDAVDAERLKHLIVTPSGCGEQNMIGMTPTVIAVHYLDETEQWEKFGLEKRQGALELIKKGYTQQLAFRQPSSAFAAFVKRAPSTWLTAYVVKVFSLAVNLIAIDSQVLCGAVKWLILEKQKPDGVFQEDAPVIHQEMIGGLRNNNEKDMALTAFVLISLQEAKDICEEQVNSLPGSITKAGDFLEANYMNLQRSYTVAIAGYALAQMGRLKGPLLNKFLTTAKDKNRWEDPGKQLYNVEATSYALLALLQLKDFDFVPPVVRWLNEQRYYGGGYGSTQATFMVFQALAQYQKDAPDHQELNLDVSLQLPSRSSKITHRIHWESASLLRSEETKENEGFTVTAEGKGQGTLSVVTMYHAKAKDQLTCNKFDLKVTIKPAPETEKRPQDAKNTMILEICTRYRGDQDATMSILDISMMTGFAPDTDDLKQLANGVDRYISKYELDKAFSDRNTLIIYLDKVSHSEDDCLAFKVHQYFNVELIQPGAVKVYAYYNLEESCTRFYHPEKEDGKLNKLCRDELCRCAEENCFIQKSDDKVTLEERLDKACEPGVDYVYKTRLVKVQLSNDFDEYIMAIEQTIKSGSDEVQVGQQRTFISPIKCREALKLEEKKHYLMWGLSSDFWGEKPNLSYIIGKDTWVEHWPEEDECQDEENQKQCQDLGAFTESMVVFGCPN
Sequence of C3 convertase of the alternative pathway (C3bBb) formed on C3b-coated wells (P01024 23-667 limits assumed, chain 2 of 3): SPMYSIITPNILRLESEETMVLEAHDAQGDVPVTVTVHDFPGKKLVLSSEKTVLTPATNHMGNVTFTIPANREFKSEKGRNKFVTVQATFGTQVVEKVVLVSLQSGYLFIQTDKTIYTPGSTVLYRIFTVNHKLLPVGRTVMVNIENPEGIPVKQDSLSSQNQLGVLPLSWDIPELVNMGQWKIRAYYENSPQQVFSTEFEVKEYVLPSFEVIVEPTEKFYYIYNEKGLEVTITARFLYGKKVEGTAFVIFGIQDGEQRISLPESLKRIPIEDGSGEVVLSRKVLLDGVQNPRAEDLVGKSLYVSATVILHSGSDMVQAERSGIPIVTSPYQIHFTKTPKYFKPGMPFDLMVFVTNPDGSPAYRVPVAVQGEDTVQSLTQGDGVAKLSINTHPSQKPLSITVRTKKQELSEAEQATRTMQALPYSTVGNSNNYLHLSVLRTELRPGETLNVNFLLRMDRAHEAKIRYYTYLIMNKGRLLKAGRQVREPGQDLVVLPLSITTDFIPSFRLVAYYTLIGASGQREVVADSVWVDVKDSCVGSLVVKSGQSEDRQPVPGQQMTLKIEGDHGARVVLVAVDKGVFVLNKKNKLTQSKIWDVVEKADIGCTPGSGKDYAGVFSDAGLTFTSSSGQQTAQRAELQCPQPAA
Sequence of C3 convertase of the alternative pathway (C3bBb) formed on C3b-coated wells (P00751 260-764 limits assumed, chain 3 of 3, further chain): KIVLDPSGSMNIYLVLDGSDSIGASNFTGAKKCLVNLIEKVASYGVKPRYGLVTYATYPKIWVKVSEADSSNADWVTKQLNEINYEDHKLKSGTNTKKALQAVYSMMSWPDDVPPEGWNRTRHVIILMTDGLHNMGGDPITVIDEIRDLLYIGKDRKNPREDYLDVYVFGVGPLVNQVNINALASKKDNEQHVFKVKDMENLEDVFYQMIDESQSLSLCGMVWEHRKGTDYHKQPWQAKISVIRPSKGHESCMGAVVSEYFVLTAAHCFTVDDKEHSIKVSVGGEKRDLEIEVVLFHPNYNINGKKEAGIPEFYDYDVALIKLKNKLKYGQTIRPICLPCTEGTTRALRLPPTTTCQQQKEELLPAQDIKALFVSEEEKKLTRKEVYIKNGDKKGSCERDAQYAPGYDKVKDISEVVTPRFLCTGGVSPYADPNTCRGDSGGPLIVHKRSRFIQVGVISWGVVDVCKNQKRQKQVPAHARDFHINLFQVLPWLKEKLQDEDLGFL

- IC50, acceleration of the dissociation of C3 convertase (sample: FH plasma calibrator (The binding site)): 0.0681 µg/mL
Substance: Human Factor H Calibrator NL (The Binding Site, Ref: RP030) (from UniProt P08603 19-1231)

- mean IC50 (printed '1050'), acceleration of the dissociation of C3 convertase, pool plasma: 0.058 µg/mL
Substance: factor H of the pool plasma (ECQ 1) (from UniProt P08603 19-1231)

- IC50, acceleration of the dissociation of C3 convertase (sample: Formulated plasma FH, purified protein): 0.0179 µg/mL
- IC50, acceleration of the dissociation of C3 convertase (sample: Formulated purified FH plasma): 0.0546 µg/mL
- IC50, acceleration of the dissociation of C3 convertase (sample: Plasma FH PBS 1X): 0.0152 µg/mL
- IC50, acceleration of the dissociation of C3 convertase (sample: Purified FH plasma PBS 1X): 0.0438 µg/mL
Substance: purified human plasma factor H (batch LFB) (from UniProt P08603 19-1231)
